Laboratory results taken from the supplement of paper PMC12458215.
± gives the uncertainty stated by the source.

Test system: HEK293T
Assay: plasma membrane surface immunostaining intensity (anti-HA, deep receptor scanning) (arbitrary fluorescence units); higher = higher plasma membrane expression

## MKLGSSRAGPGRGSAGLLPGVHELPMGIPAPWGTSPLSFHRKCSLWAPGRPFLTLVLLVSIKQVTGSLLEETTRKWAQYKQACLRDLLKEPSGIFCNGTFDQYVCWPHSSPGNVSVPCPSYLPWWSEESSGRAYRHCLAQGTWQTIENATDIWQDDSECSENHSFKQNVDRYALLSTLQLMYTVGYSFSLISLFLALTLLLFLRKLHCTRNYIHMNLFASFILRTLAVLVKDVVFYNSYSKRPDNENGWMSYLSEMSTSCRSVQVLLHYFVGANYLWLLVEGLYLHTLLEPTVLPERRLWPRYLLLGWAFPVLFVVPWGFARAHLENTGCWTTNGNKKIWWIIRGPMMLCVTVNFFIFLKILKLLISKLKAHQMCFRDYKYRLAKSTLVLIPLLGVHEILFSFITDDQVEGFAKLIRLFIQLTLSSFHGFLVALQYGFANGEVKAELRKYWVRFLLARHSGCRACVLGKDFRFLGKCPKKLSEGDGAEKLRKLQPSLNSGRLLHLAMRGLGELGAQPQQDHARWPRGSSLSECSEGDVTMANTMEEILEESEI [GLP2R]
GPCR class: B
  plasma membrane surface immunostaining intensity: 121 ± 21

## MKLWMESHLIVPETRPSPRMMSNQTLVTEFILQGFSEHPEYRVFLFSCFLFLYSGALTGNVLITLAITFNPGLHAPMYFFLLNLATMDIICTSSIMPKALASLVSEESSISYGGCMAQLYFLTWAASSELLLLTVMAYDRYAAICHPLHYSSMMSKVFCSGLATAVWLLCAVNTAIHTGLMLRLDFCGPNVIIHFFCEVPPLLLLSCSSTYVNGVMIVLADAFYGIVNFLMTIASYGFIVSSILKVKTAWGRQKAFSTCSSHLTVVCMYYTAVFYAYISPVSGYSAGKSKLAGLLYTVLSPTLNPLIYTLRNKEVKAALRKLFPFFRN [OR13A1]
GPCR class: A (Olfactory)
  plasma membrane surface immunostaining intensity: 120 ± 26

## MKMKSQATMICCLVFFLSTECSHYRSKIHLKAGDKLQSPEGKPKTGRIQEKCEGPCISSSNCSQPCAKDFHGEIGFTCNQKKWQKSAETCTSLSVEKLFKDSTGASRLSVAAPSIPLHILDFRAPETIESVAQGIRKNCPFDYACITDMVKSSETTSGNIAFIVELLKNISTDLSDNVTREKMKSYSEVANHILDTAAISNWAFIPNKNASSDLLQSVNLFARQLHIHNNSENIVNELFIQTKGFHINHNTSEKSLNFSMSMNNTTEDILGMVQIPRQELRKLWPNASQAISIAFPTLGAILREAHLQNVSLPRQVNGLVLSVVLPERLQEIILTFEKINKTRNARAQCVGWHSKKRRWDEKACQMMLDIRNEVKCRCNYTSVVMSFSILMSSKSMTDKVLDYITCIGLSVSILSLVLCLIIEATVWSRVVVTEISYMRHVCIVNIAVSLLTANVWFIIGSHFNIKAQDYNMCVAVTFFSHFFYLSLFFWMLFKALLIIYGILVIFRRMMKSRMMVIGFAIGYGCPLIIAVTTVAITEPEKGYMRPEACWLNWDNTKALLAFAIPAFVIVAVNLIVVLVVAVNTQRPSIGSSKSQDVVIIMRISKNVAILTPLLGLTWGFGIATLIEGTSLTFHIIFALLNAFQGFFILLFGTIMDHKIRDALRMRMSSLKGKSRAAENASLGPTNGSKLMNRQG [ADGRF4]
GPCR class: B
  plasma membrane surface immunostaining intensity: 386 ± 78

## MKMLTRLQVLTLALFSKGFLLSLGDHNFLRREIKIEGDLVLGGLFPINEKGTGTEECGRINEDRGIQRLEAMLFAIDEINKDDYLLPGVKLGVHILDTCSRDTYALEQSLEFVRASLTKVDEAEYMCPDGSYAIQENIPLLIAGVIGGSYSSVSIQVANLLRLFQIPQISYASTSAKLSDKSRYDYFARTVPPDFYQAKAMAEILRFFNWTYVSTVASEGDYGETGIEAFEQEARLRNICIATAEKVGRSNIRKSYDSVIRELLQKPNARVVVLFMRSDDSRELIAAASRANASFTWVASDGWGAQESIIKGSEHVAYGAITLELASQPVRQFDRYFQSLNPYNNHRNPWFRDFWEQKFQCSLQNKRNHRRVCDKHLAIDSSNYEQESKIMFVVNAVYAMAHALHKMQRTLCPNTTKLCDAMKILDGKKLYKDYLLKINFTAPFNPNKDADSIVKFDTFGDGMGRYNVFNFQNVGGKYSYLKVGHWAETLSLDVNSIHWSRNSVPTSQCSDPCAPNEMKNMQPGDVCCWICIPCEPYEYLADEFTCMDCGSGQWPTADLTGCYDLPEDYIRWEDAWAIGPVTIACLGFMCTCMVVTVFIKHNNTPLVKASGRELCYILLFGVGLSYCMTFFFIAKPSPVICALRRLGLGSSFAICYSALLTKTNCIARIFDGVKNGAQRPKFISPSSQVFICLGLILVQIVMVSVWLILEAPGTRRYTLAEKRETVILKCNVKDSSMLISLTYDVILVILCTVYAFKTRKCPENFNEAKFIGFTMYTTCIIWLAFLPIFYVTSSDYRVQTTTMCISVSLSGFVVLGCLFAPKVHIILFQPQKNVVTHRLHLNRFSVSGTGTTYSQSSASTYVPTVCNGREVLDSTTSSL [GRM3]
GPCR class: C
  plasma membrane surface immunostaining intensity: 6390 ± 16

## MKSDNHSFLGDSPKAFILLGVSDRPWLELPLFVVLLLSYVLAMLGNVAIILASRVDPQLHSPMYIFLSHLSFLDLCYTTTTVPQMLVNMGSSQKTISYGGCTVQYAVFHWLGCTECIVLAAMALDRYVAICKPLHYAVLMHRALCQQLVALAWLSGFGNSFVQVVLTVQLPFCGRQVLNNFFCEVPAVIKLSCADTAVNDTILAVLVAFFVLVPLALILLSYGFIARAVLRIQSSKGRHKAFGTCSSHLMIVSLFYLPAIYMYLQPPSSYSQEQGKFISLFYSIITPTLNPFTYTLRNKDMKGALRRLLARIWRLCG [OR2B11]
GPCR class: A (Olfactory)
  plasma membrane surface immunostaining intensity: 238 ± 84

## MKSILDGLADTTFRTITTDLLYVGSNDIQYEDIKGDMASKLGYFPQKFPLTSFRGSPFQEKMTAGDNPQLVPADQVNITEFYNKSLSSFKENEENIQCGENFMDIECFMVLNPSQQLAIAVLSLTLGTFTVLENLLVLCVILHSRSLRCRPSYHFIGSLAVADLLGSVIFVYSFIDFHVFHRKDSRNVFLFKLGGVTASFTASVGSLFLTAIDRYISIHRPLAYKRIVTRPKAVVAFCLMWTIAIVIAVLPLLGWNCEKLQSVCSDIFPHIDETYLMFWIGVTSVLLLFIVYAYMYILWKAHSHAVRMIQRGTQKSIIIHTSEDGKVQVTRPDQARMDIRLAKTLVLILVVLIICWGPLLAIMVYDVFGKMNKLIKTVFAFCSMLCLLNSTVNPIIYALRSKDLRHAFRSMFPSCEGTAQPLDNSMGDSDCLHKHANNAASVHRAAESCIKSTVKIAKVTMSVSTDTSAEAL [CNR1]
GPCR class: A
  plasma membrane surface immunostaining intensity: 130 ± 25

## MKSPFYRCQNTTSVEKGNSAVMGGVLFSTGLLGNLLALGLLARSGLGWCSRRPLRPLPSVFYMLVCGLTVTDLLGKCLLSPVVLAAYAQNRSLRVLAPALDNSLCQAFAFFMSFFGLSSTLQLLAMALECWLSLGHPFFYRRHITLRLGALVAPVVSAFSLAFCALPFMGFGKFVQYCPGTWCFIQMVHEEGSLSVLGYSVLYSSLMALLVLATVLCNLGAMRNLYAMHRRLQRHPRSCTRDCAEPRADGREASPQPLEELDHLLLLALMTVLFTMCSLPVIYRAYYGAFKDVKEKNRTSEEAEDLRALRFLSVISIVDPWIFIIFRSPVFRIFFHKIFIRPLRYRSRCSNSTNMESSL [PTGDR]
GPCR class: A
  plasma membrane surface immunostaining intensity: 6000 ± 81

## MKVGVLWLISFFTFTDGHGGFLGKNDGIKTKKELIVNKKKHLGPVEEYQLLLQVTYRDSKEKRDLRNFLKLLKPPLLWSHGLIRIIRAKATTDCNSLNGVLQCTCEDSYTWFPPSCLDPQNCYLHTAGALPSCECHLNNLSQSVNFCERTKIWGTFKINERFTNDLLNSSSAIYSKYANGIEIQLKKAYERIQGFESVQVTQFRNGSIVAGYEVVGSSSASELLSAIEHVAEKAKTALHKLFPLEDGSFRVFGKAQCNDIVFGFGSKDDEYTLPCSSGYRGNITAKCESSGWQVIRETCVLSLLEELNKNFSMIVGNATEAAVSSFVQNLSVIIRQNPSTTVGNLASVVSILSNISSLSLASHFRVSNSTMEDVISIADNILNSASVTNWTVLLREEKYASSRLLETLENISTLVPPTALPLNFSRKFIDWKGIPVNKSQLKRGYSYQIKMCPQNTSIPIRGRVLIGSDQFQRSLPETIISMASLTLGNILPVSKNGNAQVNGPVISTVIQNYSINEVFLFFSKIESNLSQPHCVFWDFSHLQWNDAGCHLVNETQDIVTCQCTHLTSFSILMSPFVPSTIFPVVKWITYVGLGISIGSLILCLIIEALFWKQIKKSQTSHTRRICMVNIALSLLIADVWFIVGATVDTTVNPSGVCTAAVFFTHFFYLSLFFWMLMLGILLAYRIILVFHHMAQHLMMAVGFCLGYGCPLIISVITIAVTQPSNTYKRKDVCWLNWSNGSKPLLAFVVPALAIVAVNFVVVLLVLTKLWRPTVGERLSRDDKATIIRVGKSLLILTPLLGLTWGFGIGTIVDSQNLAWHVIFALLNAFQGFFILCFGILLDSKLRQLLFNKLSALSSWKQTEKQNSSDLSAKPKFSKPFNPLQNKGHYAFSHTGDSSDNIMLTQFVSNE [ADGRF1]
GPCR class: B
  plasma membrane surface immunostaining intensity: 466 ± 27

## MLAAAFADSNSSSMNVSFAHLHFAGGYLPSDSQDWRTIIPALLVAVCLVGFVGNLCVIGILLHNAWKGKPSMIHSLILNLSLADLSLLLFSAPIRATAYSKSVWDLGWFVCKSSDWFIHTCMAAKSLTIVVVAKVCFMYASDPAKQVSIHNYTIWSVLVAIWTVASLLPLPEWFFSTIRHHEGVEMCLVDVPAVAEEFMSMFGKLYPLLAFGLPLFFASFYFWRAYDQCKKRGTKTQNLRNQIRSKQVTVMLLSIAIISALLWLPEWVAWLWVWHLKAAGPAPPQGFIALSQVLMFSISSANPLIFLVMSEEFREGLKGVWKWMITKKPPTVSESQETPAGNSEGLPDKVPSPESPASIPEKEKPSSPSSGKGKTEKAEIPILPDVEQFWHERDTVPSVQDNDPIPWEHEDQETGEGVK [GPR151]
GPCR class: A
  plasma membrane surface immunostaining intensity: 5990 ± 230

## MLESHLIIYFLLAVIQFLLGIFTNGIIVVVNGIDLIKHRKMAPLDLLLSCLAVSRIFLQLFIFYVNVIVIFFIEFIMCSANCAILLFINELELWLATWLGVFYCAKVASVRHPLFIWLKMRISKLVPWMILGSLLYVSMICVFHSKYAGFMVPYFLRKFFSQNATIQKEDTLAIQIFSFVAEFSVPLLIFLFAVLLLIFSLGRHTRQMRNTVAGSRVPGRGAPISALLSILSFLILYFSHCMIKVFLSSLKFHIRRFIFLFFILVIGIYPSGHSLILILGNPKLKQNAKKFLLHSKCCQ [TAS2R1]
GPCR class: Taste
  plasma membrane surface immunostaining intensity: 212 ± 85

## MLGIMAWNATCKNWLAAEAALEKYYLSIFYGIEFVVGVLGNTIVVYGYIFSLKNWNSSNIYLFNLSVSDLAFLCTLPMLIRSYANGNWIYGDVLCISNRYVLHANLYTSILFLTFISIDRYLIIKYPFREHLLQKKEFAILISLAIWVLVTLELLPILPLINPVITDNGTTCNDFASSGDPNYNLIYSMCLTLLGFLIPLFVMCFFYYKIALFLKQRNRQVATALPLEKPLNLVIMAVVIFSVLFTPYHVMRNVRIASRLGSWKQYQCTQVVINSFYIVTRPLAFLNSVINPVFYFLLGDHFRDMLMNQLRHNFKSLTSFSRWAHELLLSFREK [SUCNR1]
GPCR class: A
  plasma membrane surface immunostaining intensity: 528 ± 61

## MLGLNHTSMSEFILVGFSAFPHLQLMLFLLFLLMYLFTLLGNLLIMATVWSERSLHTPMYLFLCVLSVSEILYTVAIIPRMLADLLSTQRSIAFLACASQMFFSFSFGFTHSFLLTVMGYDRYVAICHPLRYNVLMSPRGCACLVGCSWAGGSVMGMVVTSAIFQLTFCGSHEIQHFLCHVPPLLKLACGNNVPAVALGVGLVCIMALLGCFLLILLSYAFIVADILKIPSAEGRNKAFSTCASHLIVVIVHYGFASVIYLKPKGPHSQEGDTLMATTYAVLTPFLSPIIFSLRNKELKVAMKRTFLSTLYSSGT [OR10H2]
GPCR class: A (Olfactory)
  plasma membrane surface immunostaining intensity: 112 ± 22
